Data taken from patent publication US20240141038A1 (SHANGHAI QILU PHARMACEUTICAL RESEARCH AND DEVELOPMENT CENTRE, published 2024).
Where a chain is given by its changes, count along the chain named.

B1: H4-PC11 humanized antibody (antibody, human IgG1, V domains shown)
VH: EVQLVESGGGLVQPGGSLRLSCAPSPYSANSFSMAWFRQAPGKGREGIACIQAESGSTNVAPSVKGRFTISQDNSKNTLYLQMNSLRAEDTAVYYCAAFKRNVGGCELRPEHWRFWGQGTLVTVSS
notes: not shown: constant region of human IgG1
B2: H5-PC11 humanized antibody (antibody, human IgG1, V domains shown)
VH: B1 VH with G44E
notes: as for B1
B3: H1-PA27 humanized antibody (antibody, human IgG1, V domains shown)
VH: QVQLVESGGGVVQPGRSLRLSCAASGRTESWYRMGWVRQAPGKGLEWVARISGDTNIKYYAGSVKGRFTISRDNSKNTLYLQMSSLRAEDTAVYYCAADRTGATWDYWGQGTLVTVSS
notes: also called hPA27; not shown: constant region of human IgG1
B4: H3-PA27 humanized antibody (antibody, human IgG1, V domains shown)
VH: B3 VH with V37F, L45R, W47V
notes: as for B1
B5: H3-PA45 humanized antibody (antibody, V domains shown)
VH: EVQLVESGGGLVQPGGSLRLSCAASGRTFSRLPMAWFRQAPGKGREFVAAISWSGGSTYYADSMKGRFTISRDNSKNTAYLQMNSLRAEDTAVYYCAAVGDSAPYSATIVYTDARAYAYWGQGTLVTVSS
notes: as for B1
B6: H1-PA45 humanized antibody (antibody, human IgG1, V domains shown)
VH: B5 VH with F37V, R45L, F47W, A49S, A79L
notes: also called hPA45; not shown: constant region of human IgG1
B7: H3-PA31 humanized antibody (antibody, human IgG1, V domains shown)
VH: EVQLVESGGGLVQPGGSLRLSCAVSGRTFSRLPMGWFRQAPGKGREFVAAISWSSSTTYYADSVKGRFTISRDNSKNTAYLQMNSLRAEDTAVYYCAAVGGSLDYSATVVYTAARAYADWGQGTLVTVSS
notes: as for B1
B8: NKp46-PA11 VHH (his and c-Myc labels) (VHH)
VHH: DVQLVESGGGLVQAGGSLRLSCAASGHTESWYRMGWFRQAPGKGREVVGRISGSPGILYYAGSVKGRFTISRDNAKNTLYLQMTNLKPEDTARYYCAADRTGATWDYWGQGTQVTVSS
notes: IPTG-induced E. coli supernatant used in the screening ELISA; also called NKp46-PA11 clone supernatant; not shown: his and c-Myc labels
B9: NKp46-PA27 VHH (his and c-Myc labels) (VHH)
VHH: B8 VHH with G16A, H27R, G49A, S54D, P55T, G56N, L58K
notes: IPTG-induced E. coli supernatant used in the screening ELISA; also called NKp46-PA27 clone supernatant; not shown: his and c-Myc labels
B10: NKp46-PA15 VHH (his and c-Myc labels) (VHH)
VHH: QVQLVESGGGLVQAGDSLRVSCAASGRTFSTYAMGWFRQAPGKEREFVAASSRDGTTTYYADSVKGRFTISRDNAKNTVYLQMNSLKPEDTAVYYCAASRPLSTTQVGIASAWYEYWGQGTQVTVSS
notes: IPTG-induced E. coli supernatant used in the screening ELISA; also called NKp46-PA15 clone supernatant; not shown: his and c-Myc labels
B11: NKp46-PA19 VHH (his and c-Myc labels) (VHH)
VHH: QVQLVESGGGLVQPGGSLRLACAASGRTFSTYAMGWFRQAPGKEREFVAAISRNGGTTYYADSVKGRFTISRDNAKNTVYLQMNSLKPEDTAVYYCAASRPLSNTQVGVASAWYEFWGQGTLVTVSS
notes: IPTG-induced E. coli supernatant used in the screening ELISA; also called NKp46-PA19 clone supernatant; not shown: his and c-Myc labels
B12: NKp46-PA24 VHH (his and c-Myc labels) (VHH)
VHH: QVQLVESGGGQVQAGGSLRLSCVASGRTYSIYGMGWFRQAPGKEREVVAAINWSSGHTYYADSVKGRFTISKDNAKNTHYLQMNSLKPEDTAVYYCAADSIYGLSFTVKDYDYWGQGTLVTVSS
notes: IPTG-induced E. coli supernatant used in the screening ELISA; also called NKp46-PA24 clone supernatant; not shown: his and c-Myc labels
B13: NKp46-PA29 VHH (his and c-Myc labels) (VHH)
VHH: B12 VHH with Q11W, A14P, V23A, V47I, S54N, K72R, Y102I, L119Q
notes: IPTG-induced E. coli supernatant used in the screening ELISA; also called NKp46-PA29 clone supernatant; not shown: his and c-Myc labels
B14: NKp46-PA26 VHH (his and c-Myc labels) (VHH)
VHH: QVQLVESGGGMVQAGGSLRLSCAASGRTFNTIHWFRQAPGKEREFVARIWWIGGATFYADSVKGRFTISRDNTENLVYLQMNSLKPEDTAVYYCAADARYTSHGYYESDYWGPGTQVTVSS
notes: IPTG-induced E. coli supernatant used in the screening ELISA; also called NKp46-PA26 clone supernatant; not shown: his and c-Myc labels
B15: NKp46-PA28 VHH (his and c-Myc labels) (VHH)
VHH: QVQLVESGGGLVQAGDSLRLSCVASGRTFSTYAMGWFRQAPGKEREFVAAISRNADTTYYADSVKGRFTISRDNAKNTVYLQMNSLKPEDTAVYYCAADRYSSNTQVGVARTYYDYWGQGTQVTVSS
notes: IPTG-induced E. coli supernatant used in the screening ELISA; also called NKp46-PA28 clone supernatant; not shown: his and c-Myc labels

Target: T1, human NKp46 (full length, on cells) (human, UniProt O76036 22-304)
T1 construct: also called human NKp46-CHOK1
T1 sequence (O76036 22-304 Q82K): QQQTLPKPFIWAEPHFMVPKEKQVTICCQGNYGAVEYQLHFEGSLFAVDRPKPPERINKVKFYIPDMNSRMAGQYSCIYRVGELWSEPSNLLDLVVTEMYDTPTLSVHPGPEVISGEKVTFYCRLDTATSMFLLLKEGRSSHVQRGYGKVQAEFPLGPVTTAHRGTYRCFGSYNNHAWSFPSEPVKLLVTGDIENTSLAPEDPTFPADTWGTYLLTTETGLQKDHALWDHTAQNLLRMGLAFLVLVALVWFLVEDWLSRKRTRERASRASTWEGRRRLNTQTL
Assay: flow cytometry on human NKp46-CHOK1 cells
Protocol: (§1) The stable human NKp46-CHOK1 and cynomolgus monkey NKp46-CHOK1 cell lines obtained in Example 2 were cultured, the cells were digested with 0.25% pancreatic enzyme EDTA for about 5 minutes, and the digestion was terminated with the complete medium. After centrifugation at 1,500 rpm for 5 minutes, the supernatant was discarded, the precipitated cells were resuspended with PBS containing 1% BSA and counted. The cell density was adjusted to 1E6/mL and seeded in a corning-3799 96-well culture plate at 100 μL/well. Aftering centrifuging at 1,500 rpm for 5 minutes, the supernatant was discarded and the precipitate was set aside at 4° C. The antibody solutions were prepared with PBS containing 1% BSA, wherein the antibody solution has an initial concentration was 100 nM, then diluted in 10-fold to obtain 7 gradients: 10⁻⁴ nM, 10⁻³ nM, 10⁻² nM, 10⁻¹ nM, […], and 10² nM. The prepared antibody solutions were used to resuspend the cells, 100 μL/well. The resuspended cell culture plates were incubated in a 4° C. freezer for 1 h. After centrifugation at 1500 rpm for 5 minutes, the supernatant was discarded. The precipitate was washed with 160 μL of PBS containing 1% BSA, the supernatant was discarded, and the cells were stored for later use.
(§2) The Secondary antibody (goat anti human IgG Fc PE) solution was prepared with PBS containing 1% BSA, and diluted 1:200. The cells were resuspended with the prepared secondary antibody solution, 100 μL/well, incubated in a 4° C. freezer for 0.5 h. After centrifugation at 1,500 rpm for 5 minutes, the supernatant was discarded, the precipitated cells were washed with 160 μL of PBS containing 1% BSA, the supernatant was discarded, the cells were resuspended with 100 μL of PBS containing 1% BSA, and filtered in 300-mesh gauze. The mean fluorescence intensity of antibody binding to cells was then analyzed on a flow cytometer. The FCS file was exported from the flow cytometer, the mean fluorescence intensity (hereinafter referred to as MFI) of PE channel was analyzed with Flowjo software, and the mean fluorescence intensity obtained was introduced into the Graphpad to analyze the half binding concentration (hereinafter referred to as EC₅₀) and the top mean fluorescence intensity (Top MFI) of the antibody and the cell.

| Binder | EC50 [nM] | Top MFI |
| --- | --- | --- |
| B1 | 0.305 | 7240 |
| B2 | 0.302 | 7370 |
| B3 | 0.253 | 6000 |
| B4 | 0.153 | 6820 |
| B5 | 0.188 | 5720 |
| B6 | 0.543 | 5090 |
| B7 | 0.148 | 5980 |

Target: T2, cynomolgus monkey NKp46 (full length, on cells) (cynomolgus monkey, UniProt Q95JB9 22-306)
T2 construct: also called cynomolgus monkey NKp46-CHOK1; cynomolgus NKp46-CHOK1
T2 sequence (Q95JB9 22-306): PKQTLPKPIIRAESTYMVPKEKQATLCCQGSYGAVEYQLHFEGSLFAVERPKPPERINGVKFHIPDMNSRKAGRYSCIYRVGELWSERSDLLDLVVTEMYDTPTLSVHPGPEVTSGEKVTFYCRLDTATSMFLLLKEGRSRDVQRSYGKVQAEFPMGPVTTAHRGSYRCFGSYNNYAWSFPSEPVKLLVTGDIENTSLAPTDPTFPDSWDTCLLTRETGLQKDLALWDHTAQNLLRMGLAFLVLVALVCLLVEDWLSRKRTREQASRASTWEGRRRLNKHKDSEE
Assay: flow cytometry on cynomolgus monkey NKp46-CHOK1 cells
Protocol: as §1, §2

| Binder | EC50 [nM] | Top MFI |
| --- | --- | --- |
| B1 | 0.274 | 3620 |
| B2 | 0.27 | 3660 |
| B3 | 0.338 | 2540 |
| B4 | 0.072 | 4060 |
| B5 | 1.52 | 3330 |
| B6 | 11.1 | 3120 |
| B7 | 1.16 | 3210 |

Target: T3, Cynomolgus monkey NKp46 for immunization, screening, and testing (Kactus, NKP-CM146) (cynomolgus monkey, UniProt Q95JB9 22-254)
T3 construct: Bought protein; also called monkey NKp46 antigen protein; cynomolgus monkey NKp46 antigen
T3 sequence (Q95JB9 other isoform, or with tags, fused parts or gaps limits assumed): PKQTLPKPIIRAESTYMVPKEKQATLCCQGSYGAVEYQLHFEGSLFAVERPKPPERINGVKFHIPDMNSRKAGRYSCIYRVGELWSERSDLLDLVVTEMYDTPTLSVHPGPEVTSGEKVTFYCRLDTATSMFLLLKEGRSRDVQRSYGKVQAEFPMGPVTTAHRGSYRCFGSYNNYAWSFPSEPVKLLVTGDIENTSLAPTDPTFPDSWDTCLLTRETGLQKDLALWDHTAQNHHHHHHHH
Assay: ELISA, coated antigen, VHH supernatant, anti-Myc HRP
Protocol: (§3) In order to obtain positive antibodies that can cross-bind to human NKp46 and cynomolgus monkey NKp46, the above libraries were amplified and added into M13K07 helper phage and assembled into bacteriophages. 1×10¹² pfu of immune camel antibody library and immune alpaca antibody library were added thereto, and the phages were incubated with biotinylated human NKp46 protein (8 μg/mL) bound to magnetic beads for 1 h at room temperature. After washing off the unbound bacteriophages with 0.05% PBST, the phages specifically bound to NKp46 were eluted with […] triethylamine, and after gradient dilution of the bacteriophages above, E. coli SS320 in the logarithmic growth phase were infected. After being cultured overnight at 37° C. on plates containing ampicillin, single-clone was picked for IPTG-induced expression, and the supernatant was used for ELISA assay. ELISA plates were coated with […] human NKp46 antigen or cynomolgus monkey NKp46 antigen overnight at 4° C., then washed 3 times with 0.05% PBST and blocked with 5% skim milk at room temperature for 1 h, and washed 3 times with 0.05% PBST. Then 30 µL of induced supernatant was then added into per well, medium were added to negative control wells, the ELISA plates were incubated at room temperature for 1 h, and finally detected with anti-Myc HRP (VHH with his and c-Myc labels were expressed by the induction of IPTG. Sequence clones that had OD450 values of greater than 1.0 for binding to human NKp46 and cynomolgus monkey NKp46 as determined by ELISA, and of which the ratio of OD450 values to that of negative control were greater than 3 were sequenced, thereby obtaining amino acid sequences of 30 variable regions of heavy chain antibodies disclosed in the present disclosure, as shown in Table 2.

| Binder | OD450 | ratio of OD450 to negative control |
| --- | --- | --- |
| B8 | > 1 | > 3 |
| B9 | > 1 | > 3 |
| B10 | > 1 | > 3 |
| B11 | > 1 | > 3 |
| B12 | > 1 | > 3 |
| B13 | > 1 | > 3 |
| B14 | > 1 | > 3 |
| B15 | > 1 | > 3 |

Target: T4, Human NKp46 antigen for immunization, screening, and testing (Kactus, NKP-HM146) (human, UniProt O76036 22-255)
T4 construct: Bought protein; also called human NKp46 antigen protein; human NKp46 protein
T4 sequence (O76036 other isoform, or with tags, fused parts or gaps limits assumed): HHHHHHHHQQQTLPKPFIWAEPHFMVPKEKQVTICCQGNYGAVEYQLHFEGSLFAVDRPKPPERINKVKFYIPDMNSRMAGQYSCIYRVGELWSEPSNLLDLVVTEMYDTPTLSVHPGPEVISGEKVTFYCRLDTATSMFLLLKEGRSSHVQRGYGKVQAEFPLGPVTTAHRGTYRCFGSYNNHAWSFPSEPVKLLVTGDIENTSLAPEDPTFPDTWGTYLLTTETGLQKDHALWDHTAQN
Assay: as above
Protocol: as §3

| Binder | OD450 | ratio of OD450 to negative control |
| --- | --- | --- |
| B8 | > 1 | > 3 |
| B9 | > 1 | > 3 |
| B10 | > 1 | > 3 |
| B11 | > 1 | > 3 |
| B12 | > 1 | > 3 |
| B13 | > 1 | > 3 |
| B14 | > 1 | > 3 |
| B15 | > 1 | > 3 |

Target: T1, human NKp46 (full length, on cells)
Assay: cell-based or functional assay

| Binder | EC50 of NK cell activation (CD107a-positive NK cells, plate-coated antibody) [nM] | Top mean fluorescence intensity (Top MFI), NK cell activation (CD107a) |
| --- | --- | --- |
| B1 | 1.84 | 19.3 |
| B2 | 0.95 | 23.6 |
| B3 | > 20 | 6.3 |
| B4 | 7.39 | 14.4 |
| B5 | 0.58 | 34 |
| B6 | 7.39 | 30.8 |
| B7 | 0.75 | 31.6 |
